The target of test [1] is T1, huTWEAK (human, UniProt O43508 93-249, limits assumed).
T1 sequence (looked up): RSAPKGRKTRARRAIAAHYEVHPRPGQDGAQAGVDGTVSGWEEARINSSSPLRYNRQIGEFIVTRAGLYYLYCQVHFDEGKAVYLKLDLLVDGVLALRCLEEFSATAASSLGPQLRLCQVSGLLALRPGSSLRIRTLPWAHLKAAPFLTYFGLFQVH
Put plainly: cell-based or functional assay.

Test [2] deals with T2, muTNFα (mouse, UniProt P06804 80-235).
T2 sequence (looked up): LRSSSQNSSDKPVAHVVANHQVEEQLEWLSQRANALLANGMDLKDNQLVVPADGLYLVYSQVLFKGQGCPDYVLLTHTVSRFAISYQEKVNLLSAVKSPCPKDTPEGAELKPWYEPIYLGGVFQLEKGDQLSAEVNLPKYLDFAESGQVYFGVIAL
Nature of the test: cell-based or functional assay.

The target in test [3] is T3, FLAG tagged TWEAK (Recombinant Human TWEAK) (human, UniProt O43508 106-249, limits assumed).
T3 construct: Captured on a mouse anti-FLAG biosensor chip in the Biacore assay of the anti-TWEAK antibodies and DVD-Igs; also called TWEAK/TNSF12; not shown: FLAG tag
T3 sequence (looked up): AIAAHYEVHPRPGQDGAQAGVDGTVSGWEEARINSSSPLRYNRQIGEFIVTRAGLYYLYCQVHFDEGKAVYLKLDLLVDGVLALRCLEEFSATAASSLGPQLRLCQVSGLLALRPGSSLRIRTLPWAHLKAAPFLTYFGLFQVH
Nature of the test: SPR (Biacore), FLAG tagged TWEAK captured on mouse anti-FLAG chip, DVD-Ig in solution; C-terminal TWEAK (seq. 2) domain. On the procedure: (§1) Binding of antibodies or DVD-Ig to a target antigen (for example, a purified recombinant target antigen) was determined by surface plasmon resonance-based measurements with a Biacore® T-100, T-200, or 3000 instrument (GE, New Jersey) using running HBS-EP (10 mM HEPES [pH 7.4], 150 mM NaCl, 3 mM EDTA, and 0.005% surfactant P20) at 25° C. All chemicals were obtained from GE (New Jersey) or otherwise from a different source as described in the text. For example, approximately 5000 RU of goat anti-human IgG, (Fcγ), fragment specific polyclonal antibody (Pierce Biotechnology Inc, Rockford, Ill.) diluted in 10 mM sodium acetate (pH 4.5) was directly immobilized across a CM5 research grade biosensor chip using a standard amine coupling kit according to manufacturer's instructions and procedures at 25 Unreacted moieties on the biosensor surface were blocked with ethanolamine Modified carboxymethyl dextran surface in flowcell 2,3, and 4 was used as a reaction surface. Modified carboxymethyl dextran surface with goat anti-human IgG in flow cell 1 was used as the reference surface. For kinetic analysis, rate equations derived from the 1:1 Langmuir binding model were fitted simultaneously to association and dissociation phases of all eight injections (using global fit analysis) with the use of Biaevaluation 4.0.1 software. Purified antibodies or DVD-Ig were diluted in HEPES-buffered saline for capture across goat anti-human IgG specific reaction surfaces. […] The association and dissociation rate constants, kₒₙ (M⁻¹s⁻¹) and koff (s⁻¹) were determined under a continuous flow rate of 500 min. […] Anti-TWEAK antibodies and DVD-Igs were evaluated by binding of the antibodies/DVD-Igs to the captured FLAG tagged TWEAK on a mouse anti FLAG biosensor chip. […]
(§2) The equilibrium dissociation constant (M) of the reaction between antibodies or DVD-Igs and the target antigen was then calculated from the kinetic rate constants by the following formula: KD=koff/kₒₙ. Binding was recorded as a function of time and kinetic rate constants are calculated.

Test [4] has as its target T4, Recombinant Human TNF-α/TNFSF1A (human, UniProt P01375 77-233). Nature of the test: SPR (Biacore), DVD-Ig captured on goat anti-human IgG Fc chip, antigen in solution; N-terminal TNF domain. On the procedure: (§3) Binding of antibodies or DVD-Ig to a target antigen (for example, a purified recombinant target antigen) was determined by surface plasmon resonance-based measurements with a Biacore® T-100, T-200, or 3000 instrument (GE, New Jersey) using running HBS-EP (10 mM HEPES [pH 7.4], 150 mM NaCl, 3 mM EDTA, and 0.005% surfactant P20) at 25° C. All chemicals were obtained from GE (New Jersey) or otherwise from a different source as described in the text. For example, approximately 5000 RU of goat anti-human IgG, (Fcγ), fragment specific polyclonal antibody (Pierce Biotechnology Inc, Rockford, Ill.) diluted in 10 mM sodium acetate (pH 4.5) was directly immobilized across a CM5 research grade biosensor chip using a standard amine coupling kit according to manufacturer's instructions and procedures at 25 Unreacted moieties on the biosensor surface were blocked with ethanolamine Modified carboxymethyl dextran surface in flowcell 2,3, and 4 was used as a reaction surface. Modified carboxymethyl dextran surface with goat anti-human IgG in flow cell 1 was used as the reference surface. For kinetic analysis, rate equations derived from the 1:1 Langmuir binding model were fitted simultaneously to association and dissociation phases of all eight injections (using global fit analysis) with the use of Biaevaluation 4.0.1 software. Purified antibodies or DVD-Ig were diluted in HEPES-buffered saline for capture across goat anti-human IgG specific reaction surfaces. Antibodies or DVD-Ig to be captured as a ligand (1 μg/ml) were injected over reaction matrices at a flow rate of 50 μl/min. The association and dissociation rate constants, kₒₙ (M⁻¹s⁻¹) and koff (s⁻¹) were determined under a continuous flow rate of 500 min. Rate constants were derived by making kinetic binding measurements at different antigen concentrations ranging from 2-200 nM. Anti-TWEAK antibodies and DVD-Igs were evaluated by binding of the antibodies/DVD-Igs to the captured FLAG tagged TWEAK on a mouse anti FLAG biosensor chip. The concentrations of the DVD-Igs/Antibodies tested were between 100-0.01 nM.
as §2

In test [5] the target is T3, FLAG tagged TWEAK (Recombinant Human …). Nature of the test: SPR (Biacore), FLAG tagged TWEAK captured on mouse anti-FLAG chip, antibody in solution. As for the experimental part: as §3, §2
Test [6] addresses T4, Recombinant Human TNF-α/TNFSF1A. Nature of the test: SPR (Biacore), antibody captured on goat anti-human IgG Fc chip, antigen in solution (row printed a second time). As for the experimental part: Binding of antibodies or DVD-Ig to a target antigen (for example, a purified recombinant target antigen) was determined by surface plasmon resonance-based measurements with a Biacore® T-100, T-200, or 3000 instrument (GE, New Jersey) using running HBS-EP (10 mM HEPES [pH 7.4], 150 mM NaCl, 3 mM EDTA, and 0.005% surfactant P20) at 25° C. All chemicals were obtained from GE (New Jersey) or otherwise from a different source as described in the text. […] The association and dissociation rate constants, kₒₙ (M⁻¹s⁻¹) and koff (s⁻¹) were determined under a continuous flow rate of 500 min. […] Anti-TWEAK antibodies and DVD-Igs were evaluated by binding of the antibodies/DVD-Igs to the captured FLAG tagged TWEAK on a mouse anti FLAG biosensor chip. […]
as §2

The target is the same in test [7]. Nature of the test: SPR (Biacore), antibody captured on goat anti-human IgG Fc chip, antigen in solution. On the procedure:
as §1, §2

Numbering of substitutions follows the chain as printed.

T4 sequence (P01375 77-233 limits assumed): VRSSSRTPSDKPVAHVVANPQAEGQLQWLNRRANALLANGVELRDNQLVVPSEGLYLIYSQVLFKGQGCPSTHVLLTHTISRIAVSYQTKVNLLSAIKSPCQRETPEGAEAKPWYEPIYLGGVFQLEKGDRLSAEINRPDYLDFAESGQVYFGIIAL

B1: DVD1132 (bispecific antibody, human IgG1, kappa)
heavy: not shown
light: QIVLSQSPAILSASPGEKVTMTCRASSSVSYMHWFQQKPGSSPKPWIYATSNLASGVPARFSGSGSGTSYSLTISRVEAEDAATYYCQQWSSSPLTFGAGTKLELKRTVAAPDVVMTQSPLSLPVTPGEPASISCRSSQSLVSSKGNTYLHWYLQKPGQSPQFLIYKVSNRFSGVPDRFSGSGSGTDFTLKISRVEAEDVGVYFCSQSTHFPRTFGGGTKVEIKRTVAAPSVFIFPPSDEQLKSGTASVVCLLNNFYPREAKVQWKVDNALQSGNSQESVTEQDSKDSTYSLSSTLTLSKADYEKHKVYACEVTHQGLSSPVTKSFNRGEC
For B1, in test [1], the “C-terminal VD TWEAK Neutralization Assay EC50 nM (IL-8 in supernatant of A375 cells)” value was 0.238 nM. The “N-terminal VD TNFα Neutralization Assay EC50 nM (L929 cell viability, WST-1)” value in test [2] was found to be 0.196 nM.

B2: DVD1140 (bispecific antibody, human IgG1, kappa)
heavy: not shown
light: B1 light with P124S, T126S, P127L, E129D, P130Q, Q162K, E196A, V200L, K220T, V221L
notes: also called DVD1140H/DVD1140L
As to B2, the “C-terminal VD TWEAK Neutralization Assay EC50 nM (IL-8 in supernatant of A375 cells)” value in test [1] was 0.136 nM. Further, in test [3], the Kd was less than 0.0083 nM, the koff is less than 1e-06 s⁻¹ and the kon was 120000 M⁻¹ s⁻¹. Besides, the “N-terminal VD TNFα Neutralization Assay EC50 nM (L929 cell viability, WST-1)” value in test [2] was 1.06 nM. In test [4], the Kd came to 0.062 nM, the koff was determined as 0.00082 s⁻¹ and the kon was found to be 1.3e+07 M⁻¹ s⁻¹.

B3: DVD1135 (bispecific antibody, human IgG1, kappa)
heavy: not shown
light: B1 light with P124S, T126S, P127L, E129D, P130Q, Q162K, E196A, V200L, K220T, V221L
As for B3, in test [1], the “C-terminal VD TWEAK Neutralization Assay EC50 nM (IL-8 in supernatant of A375 cells)” value stood at 4.34 nM. Moreover, the “N-terminal VD TNFα Neutralization Assay EC50 nM (L929 cell viability, WST-1)” value in test [2] worked out at 1.95 nM.

B4: DVD1127 (bispecific antibody, human IgG1, kappa)
heavy: not shown
light: B1 light
notes: also called DVD1127H/DVD1127L
For B4, in test [2], the “N-terminal VD TNFα Neutralization Assay EC50 nM (L929 cell viability, WST-1)” value was 0.703 nM. Further, in test [4], the Kd was found to be 0.059 nM, the koff turned out to be 0.00058 s⁻¹ and the kon was 9.9e+06 M⁻¹ s⁻¹.

B5: DVD1131 (bispecific antibody, human IgG1, kappa)
heavy: not shown
light: QIVLSQSPAILSASPGEKVTMTCRASSSVSYMHWFQQKPGSSPKPWIYATSNLASGVPARFSGSGSGTSYSLTISRVEAEDAATYYCQQWSSSPLTFGAGTKLELKRTVAAPSVFIFPPDVVMTQSPLSLPVTPGEPASISCRSSQSLVSSKGNTYLHWYLQKPGQSPQFLIYKVSNRFSGVPDRFSGSGSGTDFTLKISRVEAEDVGVYFCSQSTHFPRTFGGGTKVEIKRTVAAPSVFIFPPSDEQLKSGTASVVCLLNNFYPREAKVQWKVDNALQSGNSQESVTEQDSKDSTYSLSSTLTLSKADYEKHKVYACEVTHQGLSSPVTKSFNRGEC
As to B5, the “C-terminal VD TWEAK Neutralization Assay EC50 nM (IL-8 in supernatant of A375 cells)” value in test [1] came to 0.123 nM.

B6: DVD1128 (bispecific antibody, human IgG1, kappa)
heavy: not shown
light: DVVMTQSPLSLPVTPGEPASISCRSSQSLVSSKGNTYLHWYLQKPGQSPQFLIYKVSNRFSGVPDRFSGSGSGTDFTLKISRVEAEDVGVYFCSQSTHFPRTFGGGTKVEIKRTVAAPQIVLSQSPAILSASPGEKVTMTCRASSSVSYMHWFQQKPGSSPKPWIYATSNLASGVPARFSGSGSGTSYSLTISRVEAEDAATYYCQQWSSSPLTFGAGTKLELKRTVAAPSVFIFPPSDEQLKSGTASVVCLLNNFYPREAKVQWKVDNALQSGNSQESVTEQDSKDSTYSLSSTLTLSKADYEKHKVYACEVTHQGLSSPVTKSFNRGEC
As to B6, the “N-terminal VD TWEAK Neutralization Assay EC50 nM (IL-8 in supernatant of A375 cells)” value in test [1] worked out at 0.462 nM.

B7: AB211 (antibody, human IgG1, kappa, V domains shown)
VH: EVQLVESGGGLVQPGGSLRLSCAASGFTFSRYAMSWVRQAPGKGLEWVAEISSGGSYPYYPDTVTGRFTISRDNAKNSLYLQMNSLRAEDTAVYYCARVLYYDYDGDRIEVMDYWGQGTLVTVSS
VL: DVVMTQSPLSLPVTPGEPASISCRSSQSLVSSKGNTYLHWYLQKPGQSPQFLIYKVSNRFSGVPDRFSGSGSGTDFTLKISRVEAEDVGVYFCSQSTHFPRTFGGGTKVEIKR
B7: the “TWEAK Neutralization Assay EC50 nM (IL-8 in supernatant of A375 cells)” value in test [1] is 0.396 nM. Also, in test [5], the Kd is less than 0.00025 nM, the koff was 2.5e-06 s⁻¹ and the kon is more than 1e+07 M⁻¹ s⁻¹.

B8: AB212 (antibody, human IgG1, kappa, V domains shown)
VH: EVQLVESGGGLVRPGGSLKLFCAASGFTFSRYAMSWVRQSPEKRLEWVAEISSGGSYPYYPDTVTGRFTISRDNAKNTLYLEMSSLKSEDTAMYYCARVLYYDYDGDRIEVMDYWGQGTAVIVSS
VL: B7 VL with P12S, T14S, P15L, E17D, P18Q, Q50K, E84A, V88L, K108T, V109L
For the molecule B8, in test [5], the Kd was found to be 0.0018 nM, the koff stood at 2.6e-05 s⁻¹ and the kon worked out at 1.1e+07 M⁻¹ s⁻¹.

B9: AB210 (antibody, human IgG1, kappa, V domains shown)
VH: EFQLQQSGPELVKPGASVRISCKASGYSFTDYNMNWVKQSNGKSLEWVGVINPNYGSSTYNQKFKGKATLTVDQSSSTAYMQLNSLTSEDSAVYYCARKWGQLGRGFFDVWGTGTTVTVSS
VL: QIVLSQSPAILSASPGEKVTMTCRASSSVSYMHWFQQKPGSSPKPWIYATSNLASGVPARFSGSGSGTSYSLTISRVEAEDAATYYCQQWSSSPLTFGAGTKLELKR
notes: also called TNF parent antibody; muTNFα Parent Antibody
In the case of B9, in test [2], the “TNFα Neutralization Assay EC50 nM (L929 cell viability, WST-1)” value was found to be 0.717 nM. Also, in test [6], the Kd is 0.073 nM and the koff was determined as 0.00041 s⁻¹. Further, in test [7], the Kd worked out at 0.073 nM, the koff was determined as 0.00041 s⁻¹ and the kon is 5.6e+06 M⁻¹ s⁻¹.

The values above are taken from patent US20110318349A1 (AbbVie / Abbott, published 2011).
